Test results published in patent US6942981.

Biological target: GST-DLG1 PDZ domains 1-2 fusion protein (human) (UniProt Q12959)
Assay: variant of the G assay; 100 uM unlabeled 8-mer with 20 uM biotin-labeled AA2L on immobilized GST-DLG1

“CLASP-2 C-terminal 8-mer peptide MTSSSSVV (unlabeled)” was tested, and the percent inhibition of labeled AA2L CLASP-2 peptide binding was > 50%.
